Source: patent publication US20180119149
pKd: −log10 of the molar value. Where two headings read alike, the source gives them in different places.

What was measured:
[1] = molecular target: CTLA-4 (UniProt P16410); settings: bulk Kd, bead-based fluorescence
[2] = molecular target: HER2 (ErbB2) (Homo sapiens) (UniProt P04626)
[3] = molecular target: HER2 (ErbB2) (Homo sapiens) (UniProt P04626); settings: bulk Kd, with formaldehyde cross-linking; about 5-fold higher Kd without
[4] = molecular target: EGFR (UniProt P00533); settings: HER2 about 4 times higher
[5] = molecular target: ErbB3 (HER3) (UniProt P21860); settings: HER2 about 4 times higher
[6] = molecular target: T1, ErbB4 (HER4) (UniProt Q15303); settings: HER2 about 4 times higher
T1 sequence: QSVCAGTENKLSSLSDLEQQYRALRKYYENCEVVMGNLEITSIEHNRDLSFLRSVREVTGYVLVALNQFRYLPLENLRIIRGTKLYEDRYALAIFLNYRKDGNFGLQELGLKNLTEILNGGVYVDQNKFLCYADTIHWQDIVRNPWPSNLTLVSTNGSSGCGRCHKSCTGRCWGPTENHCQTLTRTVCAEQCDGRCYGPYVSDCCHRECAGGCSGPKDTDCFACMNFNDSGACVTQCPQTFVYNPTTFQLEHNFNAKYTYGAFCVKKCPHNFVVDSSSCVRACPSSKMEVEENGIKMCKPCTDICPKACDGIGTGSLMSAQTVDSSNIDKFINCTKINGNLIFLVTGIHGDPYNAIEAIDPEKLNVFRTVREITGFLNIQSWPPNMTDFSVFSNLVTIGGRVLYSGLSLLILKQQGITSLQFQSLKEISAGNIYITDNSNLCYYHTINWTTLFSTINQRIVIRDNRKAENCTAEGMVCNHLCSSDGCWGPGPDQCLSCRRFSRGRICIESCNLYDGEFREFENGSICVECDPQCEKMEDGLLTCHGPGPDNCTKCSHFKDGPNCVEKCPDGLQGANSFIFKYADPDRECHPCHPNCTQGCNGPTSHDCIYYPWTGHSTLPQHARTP

[7] = system: IgE (Homo sapiens); settings: bulk Kd, bead-based fluorescence
[8] = molecular target: PD-L1 (UniProt Q9NZQ7); settings: bulk Kd, bead-based fluorescence
[9] = molecular target: PDGF-BB (Homo sapiens) (UniProt P01127); settings: bulk Kd, bead-based fluorescence
[10] = molecular target: ubiquitin (UniProt P0CG48); settings: bulk Kd, bead-based fluorescence
[11] = molecular target: PDGF-BB (Homo sapiens) (UniProt P01127); settings: unselected library on PDGF-BB beads, with formaldehyde cross-linking

PDGF-BB (Homo sapiens), sequence (P01127 82-190): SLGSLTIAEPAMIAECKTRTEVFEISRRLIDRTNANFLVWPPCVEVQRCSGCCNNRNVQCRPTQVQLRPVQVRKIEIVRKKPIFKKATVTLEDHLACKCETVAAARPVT
CTLA-4, sequence (P16410 36-161): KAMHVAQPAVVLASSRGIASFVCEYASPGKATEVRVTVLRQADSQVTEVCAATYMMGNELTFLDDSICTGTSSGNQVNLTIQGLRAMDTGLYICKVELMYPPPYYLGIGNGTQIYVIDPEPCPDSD
ErbB3 (HER3), sequence (P21860 20-643): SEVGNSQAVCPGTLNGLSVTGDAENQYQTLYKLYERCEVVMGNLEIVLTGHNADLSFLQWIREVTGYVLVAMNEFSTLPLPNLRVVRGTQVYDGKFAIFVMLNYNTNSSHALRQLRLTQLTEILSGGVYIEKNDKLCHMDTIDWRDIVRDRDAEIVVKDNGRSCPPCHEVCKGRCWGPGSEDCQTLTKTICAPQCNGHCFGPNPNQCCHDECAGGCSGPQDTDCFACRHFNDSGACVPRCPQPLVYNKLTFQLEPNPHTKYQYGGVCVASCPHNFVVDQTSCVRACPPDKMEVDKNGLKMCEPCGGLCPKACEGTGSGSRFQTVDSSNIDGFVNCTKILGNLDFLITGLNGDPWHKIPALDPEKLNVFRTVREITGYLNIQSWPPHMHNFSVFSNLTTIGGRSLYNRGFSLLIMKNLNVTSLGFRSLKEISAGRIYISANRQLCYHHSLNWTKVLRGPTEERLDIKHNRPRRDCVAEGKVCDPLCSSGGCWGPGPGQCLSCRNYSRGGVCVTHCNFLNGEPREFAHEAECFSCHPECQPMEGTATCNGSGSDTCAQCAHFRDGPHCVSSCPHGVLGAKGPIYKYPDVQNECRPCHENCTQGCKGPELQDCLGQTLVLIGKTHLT
PD-L1, sequence (Q9NZQ7 19-238): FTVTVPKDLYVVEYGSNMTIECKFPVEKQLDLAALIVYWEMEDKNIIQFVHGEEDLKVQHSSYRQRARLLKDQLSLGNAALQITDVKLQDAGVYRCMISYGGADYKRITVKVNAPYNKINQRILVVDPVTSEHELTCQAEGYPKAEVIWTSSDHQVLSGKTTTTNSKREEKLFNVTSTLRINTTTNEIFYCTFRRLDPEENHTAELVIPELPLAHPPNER

## AGCAGCACAGAGGTCAGATGNNNNNNNNNNNNNNNNNNNNNNNNNNNNNNNNNNNNNNNNCCTATGCGTGCTACCGTGAA [CTLA-4 round 3 pool]
[1]
  pKd: 7.98

## AGCAGCACAGAGGTCAGATGNNNNNNNNNNNNNNNNNNNNNNNNNNNNNNNNNNNNNNNNCCTATGCGTGCTACCGTGAA [HER2 round 1 pool]
[2]; bulk Kd, with formaldehyde cross-linking
  pKd: 7.66

## AGCAGCACAGAGGTCAGATGNNNNNNNNNNNNNNNNNNNNNNNNNNNNNNNNNNNNNNNNCCTATGCGTGCTACCGTGAA [HER2 round 3 pool]
[3]
  pKd: 8.17
[4]
  binding signal (fraction of HER2 signal): 0.25
[5]
  binding signal (fraction of HER2 signal): 0.25
[6]
  binding signal (fraction of HER2 signal): 0.25

## AGCAGCACAGAGGTCAGATGNNNNNNNNNNNNNNNNNNNNNNNNNNNNNNNNNNNNNNNNCCTATGCGTGCTACCGTGAA [IgE round 3 pool]
[7]
  pKd: 8.08

## AGCAGCACAGAGGTCAGATGNNNNNNNNNNNNNNNNNNNNNNNNNNNNNNNNNNNNNNNNCCTATGCGTGCTACCGTGAA [PD-L1 round 3 pool]
[8]
  pKd: 7.81

## AGCAGCACAGAGGTCAGATGNNNNNNNNNNNNNNNNNNNNNNNNNNNNNNNNNNNNNNNNCCTATGCGTGCTACCGTGAA [PDGF-BB round 3 pool]
[9]
  pKd: 8.72

## AGCAGCACAGAGGTCAGATGNNNNNNNNNNNNNNNNNNNNNNNNNNNNNNNNNNNNNNNNCCTATGCGTGCTACCGTGAA [ubiquitin round 3 pool]
[10]
  pKd: 7.92

## AGCAGCACAGAGGTCAGATGNNNNNNNNNNNNNNNNNNNNNNNNNNNNNNNNNNNNNNNNCCTATGCGTGCTACCGTGAA [unselected ssDNA library (N40)]
[11]
  binding signal: < 2 % bound
[2]; no obvious binding
  pKd: < 6.00
